Source: patent US10517958B2, “Compositions and methods for the treatment of platinum-drug resistant cancer” (ZYMEWORKS INC., priority 2016, dated 2019)

System: UM-UC13 parental and ex vivo cells
Experiment: Internalization assay (confocal microscopy)
Assay type: cell-based, human
Conditions: ex vivo and in situ G0-G6 tumor cells
Method: UM-UC13 parental and ex vivo cells were seeded to cover slips and grown to 80% confluency. 100 nM rVAR2-V5 was incubated with the cells for 1 hour at 37° C. and 5% CO2. Cells were subsequently washed with PBS prior to fixation with 4% paraformaldehylde for 15 min at room temperature followed by permeabilization with 0.5% trition for 3 mins and blocked with 3% BSA for 30 mins. Cells were then incubated with primary Anti-V5 antibody from ThermoFischer (R960-25) according to manufacturer's instructions followed by 1 hour incubation with anti-mouse AlexaFluor488 secondary antibody from Invitrogen (A-21202). Cover slips were washed with PBS and mounted in mounting media containing DAPI and analyzed by laser-scanning confocal microscopy.

B1: rVAR2: ID1, DBL2X and ID2a domains of the full-length malarial VAR2CSA protein linked to a C-terminal V5 tag (protein)
chain: GHSDSGKYDPCEKKLPPYDDNDQWKCQQNSSDGSGKPENICVPPRRERLCTYNLENLKFDKIRDNNAFLADVLLTARNEGEKIVQNHPDTNSSNVCNALERSFADLADIIRGTDQWKGTNSNLEKNLKQMFAKIRENDKVLQDKYPKDQKYTKLREAWWNANRQKVWEVITCGARSNDLLIKRGWRTSGKSDRKKNFELCRKCGHYEKEVPTKLDYVPQFLRWLTEWIEDFYREKQNLIDDMERHREECTREDHKSKEGTSYCSTCKDKCKKYCECVKKWKTEWENQENKYKDLYEQNKNKTSQKNTSRYDDYVKDFFEKLEANYSSLENYIKGDPYFAEYATKLSFILNPSDANNPSGETANHNDEACNCNESGISSVGQAQTSGPSSNKTCITHSSIKTNKKKECKDVKLGVRENDKDLKICVIEDTSLSGVDNCCCQDLLGILQENCSDNKRGSSSNDSCDNKNQDECQKKLEKVFASLTNGYKCDKCKSGTSRSKKKWIWKKSSGNEEGLQEEYANTIGLPPRTQSLYLGNLPKLENVCEDVKDINFDTKEKFLAGCLIVSFHEGKNLKKRYPQNKNSGNKENLCKALEYSFADYGDLIKGTSIWDNEYTKDLELNLQNNFGKLFGKYIKKNNTAEQDTSYSSLDELRESWWNTNKKYIWTAMKHGAEMNITTCNADGSVTGSGSSCDDIPTIDLIPQYLRFLQEWVENFCEQRQAKVKDVITNCKSCKESGNKCKTECKTKCKDECEKYKKFIEACGTAGGGIGTAGSPWSKRWDQIYKRYSKHIEDAKRNRKAGTKNCGTSSTTNAAASTDENKCVQSDIDSFFKHLIDIGLTTPSSYLSNVLDDNICGADKAPWTTYTTYTTTEKCNKERDKSKSQSSDTLVVVNVPSPLGNTPYRYKYACQCKIPTNEETCDDRKEYMNQWSCGSARTMKRGYKNDNYELCKYNGVDVKPTTVRSNSSKLDSGRGELEGKPIPNPLLGLDSTRTGHHHHHH
B1 was tested, and the “internalization of rVAR2 protein” value was “retained internalization capacity”.
